In a protein production outcome set (Wang et al. 2014):

Experiment: label from the status in PepcDB records

Sequence: MENFVFHNPTKIVFGRGTIPKIGEEIKNAGIRKVLFLYGGGSIKKNGVYDQVVDSLKKHGIEWVEVSGVKPNPVLSKVHEAVEVAKKEKVEAVLGVGGGSVVDSAKAVAAGALYEGDIWDAFIGKYQIEKALPIFDVLTISATGTEMNGNAVITNEKTKEKYGVSSKALYPKVSIIDPSVQFTLPKEQTVYGAVDAISHILEYYFDGSSPEISNEIAEGTIRTIMKMTERLIEKPDDYEARANLAWSATIALNGTMAVGRRGGEWACHRIEHSLSALYDIAHGAGLAIVFPAWMKYVYRKNPAQFERFAKKIFGFEGEGEELILKGIEAFKNWLKKVGAPVSLKDAGIPEEDIDKIVDNVMLLVEKNLKPKGASLGRIMVLEREDVREILKLAAK
- protein production: not failed

Sequence: MENKRAIIAVVLSFIVLVGWGYLSEYMGWTPKSVPATEQKTAASAPAPSVVTSAPEAVTPAPAFSPSTGHEVTVTTPLYKAVLHSGGGVLRQFMLSRYHMGIDRDAAPVNLIESSAIRVAPLGLLVNGQPSWNTGQWAFEGGDLNLADGQTGTLRFVGSVDGLRVVRELEFHADSYLVTEKLHLAPEGDAPRTARVGFTLGTTSLTPGESQYNLTRVAWFADGSFSEKSSTGDLEKGVLIDGSIDWAGVMSNYFLAAVAPKDTRAVLKGKLEGGVYRVAVERPDQMVNPGNSDVIVCNYWFGPKERDLLNAAPNNLGKAIDLGWFGFIARPLVTLLDFFYKYVGNYGTAIILLTILIKLVFWPLSHKSYKSMEQMKKLQPMLAKVREKHADDREKMNEEMMRLYKTYKVNPAGGCLPMLVQIPVFFGLYQALLNAIELRHAPFIAHVPFTDIVWLADLSAKDPFYVTPLVMGATMFLQQKLTPPAGDPTQAKVMMFMPVVFTFLFLNFPSGLVVYWLCNNVLSIAQQWWILRKA
- protein production: failed

Sequence: MENLASPPDISFVIAAYNAADTIEAAVQSALDQRGVTLEVIVVDDRSADDTITFVEAIAAIDPRVRLLALEENRGPGGARNAGIEAATGRWIAVLDSDDVIRPERSACMMCRAEAANAAVAVDNLDVVYTDGRPMETMFPEEFLEERAVLTLEDFISSNILFRSTFNFGYMKPMFRRDFLNNEGLRFREDIRIGEDYILLASALAAGGLCVIEPKPGYIYNIREGSISRVLELHHVEAMMRADQEFLSHYTLLPAAMDAQQARARSLQLAHNFLTLVENIKRRSVLGALKTTIRDPAVLGHLRMPIAVRLRRLRDAMFAPAAKIQGLEHHHHHH
- protein production: not failed

Sequence: MENLGDRLEVVAELSLAPGNITLTPDGRLFLSLHQFYQPEMQVAELTQDGLIPFPPQSGNAIITFDTVLGIKSDGNGIVWMLDNGNQSKSVPKLVAWDTLNNQLSRVIYLPPPITLSNSFVNDLAVDLIHNFVYISDPAPDDKAALIRVDLQTGLAARVLQGYPGIAPEDIDLVIDGVPVQIGQPDGTVIRPHLGVNGIVLDAENEWLYLSPMHSTSMYRIKSADLSNLQLTDAELGSKIERYSEKPICDGISIDKDHNIYVGDLAHSAIGVITSADRAYKLLVTDEKLSWTDSFNFGSDGYLYFDCNQLHHSAPLNAGENISAPPYYIFRLKPLAAGIVGR
- protein production: not failed

Sequence: MENLYKELGDQSLHKDFCQTVASTFSCSVNRNGKSSITWKQVQIWFQEKLKHQSQPKSKTLPSPPLQIHDLSNPSSYASNASNATFVGNSTFVQTRKGKASDLADLAFEAKSARDYAWYDVSSFLTYRVLRTGELEVRVRFSGFDNRHDEWVNVKTSVRERSIPVEPSECGRVNVGDLLLCFQEREDQALYCDGHVLNIKRGIHDHARCNCVFLVRYELDNTEESLGLERICRRPEE
- protein production: failed

Sequence: MENRIELYDSKARYGVISRGLHWAMALAFAWIYSTTSAHYLLADSALDKFLWPTHKQVGLLLMALLLVRVLWSLLNRHRRPPSLNLAATLGHGLLYAGMFAIPFLGLLRQYGSGRAFSAFGLPVMNGFDGPKIQWMTELGNNFHSLLGWTLLVLIVGHVAALILHCIKGQGHILRRMAGSARSA
- protein production: failed

Sequence: MENSDDIRLIVKIAQLYYEQDMTQAQIARELGIYRTTISRLLKRGRDQGMVTIAINYDYNENLWLEQQLKQKFGLKDVVVVSGNDEDEETQLAMMGLHGAQLLDRLLEPGDIVGFSWGRAVSALVENLPQAGQSRQLICVPIIGGPSGKLESRYHVNTLTYSAAAKLKGESHLADFPALLDNPLIRNGIMQSQHFKTISAYWDNLDIALVGIGSPAIRDGANWHAFYGGEESDDLNARQVAGDICSRFFDIHGAMVETNMSEKTLSIEMNKLKQARYSIGIAMSEEKYSGIIGALRGKYINCLVTNSSTAELLLK
- protein production: not failed

Sequence: MENTLSFKKQGYWLFSSAIIIGVLFLLLPHIISNIGVLEFIGAFFNALCMGVIAFIILKAEFLDWFKHFSFKWIIIGAPALIIISSIFNIAWAYFAGSTTENGINSVLTWTYVFTSIPFMLLGEELLSISLLYAAWKKWNWKFWQASLLCSLLFATWHLTSYDFNFLQCIITLAPARLILNYLFKKTNSVWVTFIVHFIFDFIAFLPILLK
- protein production: failed

Sequence: MENYHRLYELSPLITGWTICVMILRIYKKMLNDHSFELHLILQDEAGKRIEVTIGTRFSAFYYDRLIENQWKMISTFLGTVLLNNFTPFDYILEHSVRKDTLVDLLGALIDFDWLTNSAPNGSDMDGFKLQFRFIDSKFTIYSQDILQCEAHGEYAVDLEKKFRSVRNNKVVIALAFWKIVTYFDGGHRMKIASHAPISTVYPDPDIEPVKEIKMVCIY
- protein production: failed

Sequence: MEPCSSDEFFQALNHAEQTFKKMENYLRHKQLCDVILVAGDRRIPAHRLVLSSVSDYFAAMFTNDVREARQEEIKMEGVEPNSLWSLIQYAYTGRLELKEDNIECLLSTACLLQLSQVVEACCKFLMKQLHPSNCLGIRSFADAQGCTDLHKVAHNYTMEHFMEVIRNQEFVLLPANEIAKLLASDDMNIPNEETILNALLTWVRHDLEQRRKDLSRLLAYIRLPLLAPQAPGLELSSPDLHSKDLAHSAISSTPK
- protein production: failed

Sequence: MEPGLRLLIQLVLEFAPVFVNILHKRSEESLTTARYQVPNLIQGFIETINNINDIDNSNKSLEQEKLWQQQLVAYQRETQAQIANQQRDTALKLPEVNKILDSWPLRLYPSQILESHHSYERKPLKVFIAPPKIHFDKFDNHVETYSEIELMLAEGLREFINENYSLHSPTRPIEFLAGAWDSKRFHSESSIKALFGMLKTEPILILESENDGDYLNFRIAYWGLTQGTYYYKTISRLPYKEIIQNSAKNRALEWKKVRDELLEIGVDVEEINEFGKDNVFNLAILEKAEKWQAQGIDISKLSLQYRVSQQDIEQLCQVLITCHCLVAAWVADIYHLGNHDIPPLLPELLPSLLKNAIDVQSLQAIASSYKQVYEALEKERLYWIPELSMQLAQSLSHLPDTSWAQAEVDYSINTWLELRQVSLQQFTSPLEAMQSVVKIEDEEYIQKLREYFTVIGDRHNLQFVEKLLEAIATLKYKRSLEYPYLTKTITGHSGKVKSVAISPDGEVIVSGCTDQTVNIWNLQTGKLIRTLTGNLGEVSSVAISPDGNFLAVGSGVHPRSNVKVWHLKTGKLLHTLLGHQKPVNVVVISPDGQILASGSNKIKIWNLQKGDGVPPTVGDRICTLWHSSAVHAIAISPDSTILASGSSDNKIRLWNPRTGDPLRTLNSHDNEVKAIAISRDGQFLFSGSADTTIKIWHLITGQILHTLTGHSGDIKSLTTSPNGQFLFSGSADTTIKIWRISTGELLHTLTGHSASVNSVAISPGGNLLASGSADQTIKIWQIDKI
- protein production: failed

Sequence: MEPIMRNPEDALLDSWHQNAQAWIDAVRHGAIESRRQVTDQAILLAILGRQPERVLDLGCGEGWLLRALADRGIEAVGVDGDRTLVDAARAAGAGEVHLASYAQLAEAKVPVGKDYDLICANFALLHQDIIELLSAMRTLLVPGGALVIQTLHPWSVADGDYQDGWREESFAGFAGDWQPMPWYFRTLASWLNALDMAGLRLVSLQEPQHPQSAVPQSLLMVAERH
- protein production: failed

Sequence: MEPKPFFLCIIFLLFCSSSSEILQKQTYIVQLHPNSETAKTFASKFDWHLSFLQEAVLGVEEEEEEPSSRLLYSYGSAIEGFAAQLTESEAEILRYSPEVVAVRPDHVLQVQTTYSYKFLGLDGFGNSGVWSKSRFGQGTIIGVLDTGVWPESPSFDDTGMPSIPRKWKGICQEGESFSSSSCNRKLIGARFFIRGHRVANSPEESPNMPREYISARDSTGHGTHTASTVGGSSVSMANVLGNGAGVARGMAPGAHIAVYKVCWFNGCYSSDILAAIDVAIQDKVDVLSLSLGGFPIPLYDDTIAIGTFRAMERGISVICAAGNNGPIESSVANTAPWVSTIGAGTLDRRFPAVVRLANGKLLYGESLYPGKGIKNAGREVEVIYVTGGDKGSEFCLRGSLPREEIRGKMVICDRGVNGRSEKGEAVKEAGGVAMILANTEINQEEDSIDVHLLPATLIGYTESVLLKAYVNATVKPKARIIFGGTVIGRSRAPEVAQFSARGPSLANPSILKPDMIAPGVNIIAAWPQNLGPTGLPYDSRRVNFTVMSGTSMSCPHVSGITALIRSAYPNWSPAAIKSALMTTADLYDRQGKAIKDGNKPAGVFAIGAGHVNPQKAINPGLVYNIQPVDYITYLCTLGFTRSDILAITHKNVSCNGILRKNPGFSLNYPSIAVIFKRGKTTEMITRRVTNVGSPNSIYSVNVKAPEGIKVIVNPKRLVFKHVDQTLSYRVWFVLKKKNRGGKVASFAQGQLTWVNSHNLMQRVRSPISVTLKTN
- protein production: failed

Sequence: MEPNIKVQSEDLRYIVQVVTSKIKVYDIIVDPVSVKFYFFDSDNEGIDASFDYIRRELVDKGFIPFLSRDGENFIQVTRRPKQRYFGNIVNVVLLVATILSTMYVGSQYSINFVPRGSFYELRLWAYGFLFFSAPLLLILGIHESAHFLVAKRHHVKASLPFFIPFPVGIGTFGAFISLRDPLPNRKAMTEIGAAGPIAGFLTALPLLFVADYFQGVIKPIPPYYIPFKVTFPLIYQLLGLHTNFTGPIFPMVFAVWVGMFATAMNLIPAGQLDGSHILRGVLGNRANVLSYVFLAFLFGIGFFYTGWWIIAIFVVFTGLVHPPALNDFSKISKLDIVLGIVSLAMFILTFTIVPIKPA
- protein production: failed

Sequence: MEPNRFGDILAFVSAVKAGSFTSAAATLGVTRSAVGKSVARLEARLGVRLLHRTTRKLNVTGEGLVVFERWSQILEDLEEVDATMAQRRGKPAGILRLTAPLSFGQRHILPILNAYVTNWPEIQADVWFTDHYVDLIEEGIDVAVRIGGVKDDARILSRTIGGQQFVTCAAPGYLAKKGVPSTPADLAGHDTIFFLSGQRPMPWRLGQGDAIEVCDGPGRMNIDSSEALREAALSGFGLIHLPTYITGKDLQRGDLVEVLEAYRPPADPIRLIYPSKRHLSPRTRAFIDLLIERWRDGVPWERLEPAS
- protein production: failed

Sequence: MEQHQVWAYQTKTHSVTLNSVDIPALAADDILVQNQAIGINPVDWKFIKANPINWSNGHVPGVDGAGVIVKVGAKVDSKMLGRRVAYHTSLKRHGSFAEFTVLNTDRVMTLPDNLSFERAAALPCPLLTAWQAFEKIPLTKQREVLIVGFGAVNNLLTQMLNNAGYVVDLVSASLSQALAAKRGVRHLYREPSQVTQKYFAIFDAVNSQNAAALVPSLKANGHIICIQDRIPAPIDPAFTRTISYHEIALGALHDFGDRQDWQILMQQGEALLTLIAQGKMEIAAPDIFRFEQMIEALDHSEQTKLKTVLTLNE
- protein production: not failed

Sequence: MEQIILDIIEFLKQFSYFGVVLALTFEFIPAEVVLPMVGYWVYEGDMNFWLAVLAGTLGGTTGPLTLYALGYYGGRPLLIKYGKYFFIKEEQIQKADDFFEKYGPVVAFVGRFVPGVRTLISVPCGKAKMNIWKFSIYTFVAMFPLTTLYVYCEMKLGPHWEKAADVVGQYMLPILVVVVIIVGGILIYKFMKKRNRSESI
- protein production: failed

Sequence: MEQKILSSEPRRSFSNEFKLQMVKLASQPGAXVARIAREHDINDNLLFKWLRLWQNERRISRRLPVTTSSGAGVELLPVEITPDEQKEPMAALTPLLSTPSQSTVSASSCKVEFRHGNMTLENPSPELLTVLIRELTGRGR
- protein production: failed

Sequence: MEQLDAIRRLNVAIFDDAHIIETFERDDLLMLLARSGGTDVGFKLGYRLNEAAFYSAKGGVHPAHRRNGIARALLYDMLDVVAGRGYERFVYDTFPNKHPGMTVLGLDEGFEVIRAGYSAKYQDYRLRFAWTFDAA
- protein production: failed
